From patent US20040260064

What was measured:
[1] = tested on: recombinant murine macrophage stimulating protein (MSP)
[2] = tested on: recombinant human macrophage stimulating protein (MSP)

Chain of human kallikrein (Enzyme System Products) (chain, as listed by the source): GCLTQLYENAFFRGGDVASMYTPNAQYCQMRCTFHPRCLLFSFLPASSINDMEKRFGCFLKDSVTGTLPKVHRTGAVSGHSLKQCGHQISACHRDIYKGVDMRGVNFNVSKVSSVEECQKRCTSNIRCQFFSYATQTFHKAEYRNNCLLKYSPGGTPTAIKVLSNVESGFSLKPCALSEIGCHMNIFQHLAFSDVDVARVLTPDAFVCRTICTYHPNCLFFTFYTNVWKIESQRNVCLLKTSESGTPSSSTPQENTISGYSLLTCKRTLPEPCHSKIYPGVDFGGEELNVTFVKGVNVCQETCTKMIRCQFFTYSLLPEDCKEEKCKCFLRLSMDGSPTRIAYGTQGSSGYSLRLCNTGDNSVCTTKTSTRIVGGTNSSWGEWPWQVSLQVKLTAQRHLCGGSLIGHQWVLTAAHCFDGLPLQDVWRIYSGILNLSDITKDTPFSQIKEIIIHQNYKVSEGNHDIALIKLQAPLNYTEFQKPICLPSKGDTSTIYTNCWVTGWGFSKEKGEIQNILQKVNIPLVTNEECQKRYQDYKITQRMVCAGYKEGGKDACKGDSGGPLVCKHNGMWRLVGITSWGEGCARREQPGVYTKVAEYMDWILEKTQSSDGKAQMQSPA

## human kallikrein (Enzyme System Products)
[1]
  cleavage of proMSP seen by SDS-PAGE under reducing conditions: Kallikrein treatment efficiently cleaves proMSP or proMSP analog between the α and β subunits
Human MSP C672A analog
  cleavage of proMSP analog seen by SDS-PAGE under reducing conditions: Kallikrein treatment efficiently cleaves proMSP or proMSP analog between the α and β subunits
Murine MSP C677A analog
  cleavage of proMSP analog seen by SDS-PAGE under reducing conditions: Kallikrein treatment efficiently cleaves proMSP or proMSP analog between the α and β subunits
[2]
  cleavage of proMSP seen by SDS-PAGE under reducing conditions: Kallikrein treatment efficiently cleaves proMSP or proMSP analog between the α and β subunits
